Measurements taken from patent US20030086946A1.

Molecular target: purified human folate receptor (hFR) (human) (UniProt P15328)
UniProt P15328, sequence (P15328 25-234): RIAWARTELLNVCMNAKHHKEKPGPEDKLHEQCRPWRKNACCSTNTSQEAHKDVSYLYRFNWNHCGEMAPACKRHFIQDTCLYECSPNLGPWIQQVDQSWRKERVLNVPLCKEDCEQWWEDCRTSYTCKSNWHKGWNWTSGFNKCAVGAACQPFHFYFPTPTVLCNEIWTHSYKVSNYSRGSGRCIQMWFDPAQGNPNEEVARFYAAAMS

Q: “wild-type (native) Clostridium septicum alpha toxin” was tested. Which hFR Binding (percent of wild type) (% of wild type) did it give?
A: 100
